{"source": "paper PMC7948967", "about": "“The heme-binding protein PhuS transcriptionally regulates the Pseudomonas aeruginosa tandem sRNA prrF1,F2 locus”", "binders": {"B1": {"name": "prrF2-50 (Fur) (dsDNA)", "DNA 1": "ATGAGAACCGGCTTGACCTGATAATGAGAATAGTTATTATTACACCAACT", "DNA 2": "AGTTGGTGTAATAATAACTATTCTCATTATCAGGTCAAGCCGGTTCTCAT"}, "B2": {"name": "prrF1-50 (No Fur) (dsDNA)", "DNA 1": "ATTCCAGAGGGCTCGCGACTAGCTAGCAGAAAAGTTTGGCGAAAGCGTTT", "DNA 2": "AAACGCTTTCGCCAAACTTTTCTGCTAGCTAGTCGCGAGCCCTCTGGAAT"}, "B3": {"name": "prrF1-50 (FAM) (dsDNA)", "DNA 1": "AGCAGAAAAGTTTGGCGAAAGCGTTTGACATGGAAATGAGAATCATTATT", "DNA 2": "AATAATGATTCTCATTTCCATGTCAAACGCTTTCGCCAAACTTTTCTGCT"}, "B4": {"name": "prrF1-30 (dsDNA)", "DNA 1": "GACATGGAAATGAGAATCATTATTATGTCA", "DNA 2": "TGACATAATAATGATTCTCATTTCCATGTC"}}, "key": {"[1]": {"molecular_target": "T1, PhuS (Pseudomonas aeruginosa PAO1, UniProt O68880 1-354)", "assay": "fluorescence anisotropy; apo-PhuS; FA: 20 mM Tris-HCl pH 8.0, 100 mM NaCl, 0.05 mg/ml BSA, 10 nM DNA (Fur: 10 mM bis-Tris borate pH 7.5, 40 mM KCl, 0.1 mM MnSO4, 0.1 mg/ml BSA, 10% glycerol), temperature not stated; EMSA: 100 mM Tris pH 8.0, 500 mM NaCl, 10% glycerol, 10 ng/ml salmon sperm DNA, 37 C, 30 pM DNA", "conditions": "protein: recombinant; tags: none; label: 5'-6FAM; blunt"}, "[2]": {"molecular_target": "PhuS H212R (Pseudomonas aeruginosa PAO1, UniProt O68880 1-354, H212R)", "assay": "fluorescence anisotropy; apo-PhuS H212R; FA: 20 mM Tris-HCl pH 8.0, 100 mM NaCl, 0.05 mg/ml BSA, 10 nM DNA (Fur: 10 mM bis-Tris borate pH 7.5, 40 mM KCl, 0.1 mM MnSO4, 0.1 mg/ml BSA, 10% glycerol), temperature not stated; EMSA: 100 mM Tris pH 8.0, 500 mM NaCl, 10% glycerol, 10 ng/ml salmon sperm DNA, 37 C, 30 pM DNA", "conditions": "protein: recombinant; tags: none; label: 5'-6FAM; blunt"}, "[3]": {"molecular_target": "T2, Fur (Pseudomonas aeruginosa, UniProt Q03456 1-134)", "T2 sequence": "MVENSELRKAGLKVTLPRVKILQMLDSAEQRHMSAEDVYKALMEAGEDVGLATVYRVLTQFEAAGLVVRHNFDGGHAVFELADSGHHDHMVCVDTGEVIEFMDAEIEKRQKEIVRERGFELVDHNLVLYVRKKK", "assay": "fluorescence anisotropy; 0.1 mM MnSO4; bis-Tris borate pH 7.5, 40 mM KCl; FA: 20 mM Tris-HCl pH 8.0, 100 mM NaCl, 0.05 mg/ml BSA, 10 nM DNA (Fur: 10 mM bis-Tris borate pH 7.5, 40 mM KCl, 0.1 mM MnSO4, 0.1 mg/ml BSA, 10% glycerol), temperature not stated; EMSA: 100 mM Tris pH 8.0, 500 mM NaCl, 10% glycerol, 10 ng/ml salmon sperm DNA, 37 C, 30 pM DNA", "conditions": "protein: recombinant; tags: GST removed with thrombin (pGEX-2T); chain copies: 2; label: 5'-6FAM; blunt"}, "[4]": {"molecular_target": "T1, PhuS", "assay": "fluorescence anisotropy; apo-PhuS; much smaller anisotropy change; FA: 20 mM Tris-HCl pH 8.0, 100 mM NaCl, 0.05 mg/ml BSA, 10 nM DNA (Fur: 10 mM bis-Tris borate pH 7.5, 40 mM KCl, 0.1 mM MnSO4, 0.1 mg/ml BSA, 10% glycerol), temperature not stated; EMSA: 100 mM Tris pH 8.0, 500 mM NaCl, 10% glycerol, 10 ng/ml salmon sperm DNA, 37 C, 30 pM DNA", "conditions": "protein: recombinant; tags: none; label: 5'-6FAM; blunt"}}}
{"binder": "B1", "values": [{"measurement": "binding result", "setting": "[1]", "value": "no binding"}]}
{"binder": "B2", "values": [{"measurement": "binding result", "setting": "[1]", "value": "no binding"}]}
{"binder": "B3", "values": [{"measurement": "Kd", "setting": "[1]", "value": "64 ± 10", "unit": "nM"}, {"measurement": "Kd", "setting": "[2]", "value": "90 ± 30", "unit": "nM"}]}
{"binder": "B4", "values": [{"measurement": "Kd", "setting": "[3]", "value": "50 ± 10", "unit": "nM"}, {"measurement": "Kd", "setting": "[4]", "value": "> 2000", "unit": "nM"}]}
